Values of other authors as cited in US9333241B2, “Thyroid-stimulating hormone receptor polypeptide agonist glycoforms to treat metabolic syndrome” (LipoLytics Therapeutics, LLC, priority 2005, dated 2016).

Columns and labels:
human TSHR = biological target: T1, human TSHR (Homo sapiens, UniProt P16473); details: human TSHR transfected into CHO cells
T1 construct: expressed in transfected cells; host or cells: CHO cells

[1] = system: rodent models of the metabolic syndrome; details: recombinant glycoproteins produced in CHO cells

T1 sequence (P16473 21-764): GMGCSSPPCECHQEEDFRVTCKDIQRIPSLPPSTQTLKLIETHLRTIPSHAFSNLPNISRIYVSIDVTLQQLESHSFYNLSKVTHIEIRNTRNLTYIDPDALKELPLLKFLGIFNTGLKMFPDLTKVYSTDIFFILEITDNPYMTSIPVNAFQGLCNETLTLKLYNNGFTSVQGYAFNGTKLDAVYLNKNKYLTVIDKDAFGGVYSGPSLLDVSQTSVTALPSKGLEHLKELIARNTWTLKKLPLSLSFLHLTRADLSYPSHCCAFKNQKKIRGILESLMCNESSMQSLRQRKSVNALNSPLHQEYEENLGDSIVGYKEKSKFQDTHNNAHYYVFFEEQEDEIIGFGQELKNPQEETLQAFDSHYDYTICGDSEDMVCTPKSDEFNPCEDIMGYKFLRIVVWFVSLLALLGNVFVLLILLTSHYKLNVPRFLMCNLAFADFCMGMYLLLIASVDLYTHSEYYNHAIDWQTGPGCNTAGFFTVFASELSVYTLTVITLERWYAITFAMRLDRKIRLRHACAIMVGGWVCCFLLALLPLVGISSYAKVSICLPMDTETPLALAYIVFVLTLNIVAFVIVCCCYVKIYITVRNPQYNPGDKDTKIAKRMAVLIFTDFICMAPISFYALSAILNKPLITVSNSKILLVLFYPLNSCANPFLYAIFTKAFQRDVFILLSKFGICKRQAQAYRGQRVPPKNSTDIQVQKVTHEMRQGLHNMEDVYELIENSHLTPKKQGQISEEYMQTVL

activation of human TSHR (human TSHR): potently activates
B1: CGH: heterodimeric glycoprotein of GPHA2 and GPHB5 subunits, produced recombinantly in CHO cells (protein, listed as Homo sapiens)
alpha: QEAVIPGCHLHPFNVTVRSDRQGTCQGSHVAQACVGHCESSAFPSRYSVLVASGYRHNITSVSQCCTISGLKKVKVQLQCVGSRREELEIFTARACQCDMCRLSRY
beta: ASSGNLRTFVGCAVREFTFLAKKPGCRGLRITTDACWGRCETWEKPILEPPYIEAHHRVCTYNETKQVTVKLPNCAPGVDPFYTYPVAIRCDCGACSTATTECETI
effect of treatment in rodents [1]: improved glucose and lipid profiles and in reversed liver steatosis
